One data set deals with ATP1A1. The data set can be described thus: Prime editing at ATP1A1 (Q118R) in CD34+ HSPCs; PE and indels quantified by BEAT/TIDE (Sanger) or CRISPResso2 (amplicon sequencing). Format: cell-based, human. Conditions: for PE2max efficiency: compared to two substitutions (v1), no nicking sgRNA.
In the next data set the test system is B2M. The experiment in a line: Prime editing at B2M in CD34+ HSPCs. Format: cell-based, human. The following applies: PE2max; average, three donors; amplicon sequencing. The text has this:
FIGS. 6A-6D provide schematics and plots showing that modulation of nucleotide metabolism positively interacts with MMR evasion. (FIG. 6A) PE and indel quantification as determined by CRISPResso2 analysis from amplicon sequencing. The MMR evasion strategy based on the installation of additional silent mutations and the epegRNAs used to target the ATP1A1 locus are illustrated. Point mutations are illustrated in orange. 2.5×10^5 HSPCs were electroporated with PE2max RNAs targeting ATP1A1 and cultured in the presence or absence of 50 μM each dN and 25× in-house Vpx VLPs. Genomic DNA was harvested 3 days post-nucleofection. Data are plotted as mean±SEM from n=3 independent biological replicates performed with CD34^+ HSPCs from three different donors. (FIG. 6B) Same as in (FIG. 6A), but HSPCs were electroporated with Vpx mRNA and PE2max RNAs targeting B2M. Data are plotted as mean±SEM from n=3 independent biological replicates performed with CD34^+ HSPCs from three different donors. (FIG. 6C) Same as in (FIG. 6B), but HSPCs were electroporated with Vpx mRNA and PE3max RNAs targeting the HBG1/HBG2 promoters. […]
FIGS. 10A-10C provide a schematic and plots showing that modulation of nucleotide metabolism positively interacts with MMR-evading epegRNAs in quiescent HSPCs. […] (FIG. 10B) PE and indels quantification as determined by BEAT and TIDE analysis from Sanger sequencing. […]

As to “PE2: first-generation prime editor mRNA, SEQ ID NO: 67 [reference compound]”, the “frequency of alleles harboring the ATP1A1-Q118R mutation” value in the data set with ATP1A1 (PE2 mRNA + epegRNA/nicking sgRNA, absence of VPX VLPs, average, two donors, Sanger sequencing) turned out to be 17%.

For the molecule “PEmax: PEmax prime editor mRNA, SEQ ID NO: 68 [reference compound]”, the “basal level of editing, ATP1A1-Q118R allele frequency” value in the data set with ATP1A1 (PEmax mRNA (PE3max RNAs), no dNs, average, three donors) was 41%.

B1: original B2M epegRNA: synthetic epegRNA to knockout B2M, single nucleotide substitution; SEQ ID NO: 12 (nucleic acid)
guide: GAGUAGCGCGAGCACAGCUAGUUUUAGAGCUAGAAAUAGCAAGUUAAAAUAAGGCUAGUCCGUUAUCAACUUGAAAAAGUGGCACCGAGUCGGUGCUCCGUGGCCUGAGCUGUGCUCGCGCCGCGGUUCUAUCUAGUUACGCGUUAAACCAACUAGAAUUU
modifications: modified_base 1 OTHER; 2'-O-methyl modified nucleotide with phosphorothioate linkage; modified_base 2 OTHER; modified_base 3 OTHER; modified_base 158 OTHER; Nucleotide with phosphorothioate linkage; modified_base 159 OTHER; 2'-O-methyl modified nucleotide with phosphorothio
As to B1, the PE efficiency in the data set with B2M worked out at 2%.

B2: ATP1A1-Q118R_v2 epegRNA: synthetic epegRNA, SEQ ID NO: 7; three substitutions, optimized to evade MMR (nucleic acid)
guide: GUUCCUCUUCUGUAGCAGCUGUUUUAGAGCUAGAAAUAGCAAGUUAAAAUAAGGCUAGUCCGUUAUCAACUUGAAAAAGUGGCACCGAGUCGGUGCUAGCAUCAGGGCUGCUACAGAAGAGCGCGGUUCUAUCUAGUUACGCGUUAAACCAACUAGAAUUU
modifications: modified_base 1 OTHER; 2'-O-methyl modified nucleotide with phosphorothioate linkage; modified_base 2 OTHER; modified_base 3 OTHER; modified_base 158 OTHER; Nucleotide with phosphorothioate linkage; modified_base 159 OTHER; 2'-O-methyl modified nucleotide with phosphorothio
notes: three substitutions, optimized to evade MMR
B2: the PE2max efficiency entry in the data set with ATP1A1 is “marked increase”. In addition, the “level of improvement by Vpx mRNA co-delivery and dN supplementation” value with ATP1A1 (quiescent HSPCs, compared with HBB and B2M epegRNAs) was “highest level of improvement”.

B3: v3 epegRNA: synthetic epegRNA, SEQ ID NO: 8; four substitutions (+3 TTGG to CCTA) (nucleic acid)
guide: GUUCCUCUUCUGUAGCAGCUGUUUUAGAGCUAGAAAUAGCAAGUUAAAAUAAGGCUAGUCCGUUAUCAACUUGAAAAAGUGGCACCGAGUCGGUGCUAGCAUUAGGGCUGCUACAGAAGAGCGCGGUUCUAUCUAGUUACGCGUUAAACCAACUAGAAUUU
modifications: modified_base 1 OTHER; 2'-O-methyl modified nucleotide with phosphorothioate linkage; modified_base 2 OTHER; modified_base 3 OTHER; modified_base 158 OTHER; Nucleotide with phosphorothioate linkage; modified_base 159 OTHER; 2'-O-methyl modified nucleotide with phosphorothio
For the molecule B3, the “precise prime editing allele frequency” value in the data set with ATP1A1 (PE2max, without Vpx VLPs and dNs, average, amplicon sequencing) was determined as 20.1%. Besides, in the data set with ATP1A1, the PE2max efficiency entry is given as “marked increase”.

The record behind these values is patent US20260193679A1, “SYSTEMS AND METHODS FOR MODIFYING A POLYNUCLEOTIDE” (The Children's Medical Center Corporation, priority 2023, published 2026).
